Reference: paper doi:10.1101/685867 (bioRxiv, 2020)

Target: T1, S0_2.126 (synthetic construct (de novo design))
T1 chain: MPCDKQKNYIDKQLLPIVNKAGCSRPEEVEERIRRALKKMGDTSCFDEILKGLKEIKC
Experiment: SPR

Kd: ~0.05 nM
B1: D25 IgG (antibody, V domains shown)
VH: QVQLVQSGAEVKKPGSSVMVSCQASGGPLRNYIINWLRQAPGQGPEWMGGIIPVLGTVHYAPKFQGRVTITADESTDTAYIHLISLRSEDTAMYYCATETALVVSTTYLPHYFDNWGQGTLVTVSS
VL: DIQMTQSPSSLSAAVGDRVTITCQASQDIVNYLNWYQQKPGKAPKLLIYVASNLETGVPSRFSGSGSGTDFSLTISSLQPEDVATYYCQQYDNLPLTFGGGTKVEIK
